Measurements from patent publication US8030017B2, “Thermostable luciferases and methods of production” (Promega Corporation, priority 1997, dated 2011).

Columns and labels:
[1] = Thermostability (half-life, retained activity) of luciferases incubated in aqueous solution at different temperatures; format: physicochemical; conditions: for loss in activity: aqueous solution
Text: As defined herein, a “thermostable” enzyme, e.g., a luciferase, or an enzyme which has “thermostability”, is an enzyme which under certain conditions, e.g., at certain temperature, in aqueous solution and/or for certain periods of time, has an increased retention of activity relative to a reference enzyme. For example, for a thermostable luciferase, a reference luciferase may be native wild-type luciferase or recombinant wild-type luciferase. Preferably, for beetle luciferases, the activity is luminescence under conditions of saturation with luciferin and ATP. One measure of thermostability of an enzyme is the half-life of the enzyme in an aqueous solution (the time over which 50% of the activity is lost) at a stated temperature.
(§1) Protein purification: Four mutants that are described herein (Luc[T249M], Luc49-7C6, Luc78-0B10, and Luc90-1B5) were purified using a previously published procedure (Hastings et al., 1996).
[…] Enzyme stability was determined from diluted proteins incubated at different temperatures, and aliquots were removed at different time points. A linear regression of the natural log of the luminescence and time was calculated. Half-life was calculated as the 1n(0.5)/slope of the regression.

[2] = Robotic quantitative screen of E. coli lysates: enzyme stability (tau) at elevated temperature; format: physicochemical; conditions: relative value; Control is Luc85-4F12 at 65° C. (=1)
Method: Two white assay plates (Labsystems #9502887) are obtained from the plate feeder and placed in the pipetter. The incubation plate from the shaker is placed in the pipetter, and the lid removed and placed on the nearby locator. Two daughter plates are made using the pipetting procedure (see “Create Pair of Daughter Plates from Incubation Plate”). Afterwards, the lid is replaced on the parent plate, and the plate is placed in a high temperature incubator. [ranging from 31° C. to about 65° C. depending on the clone.]
To begin the second set of measurements, the plate from the high temperature incubator is placed in the shaker to mix.
In the final set of measurements, the plate from the high temperature incubator is again placed in the shaker to mix.
The following criteria were used for screening purposes. The temperature chosen for the enzyme stability parameter was such that the parent enzyme would decay 100 to 1000 fold over 10 hours (see Table 1). Criteria 1 is achieved manually; data for criteria 2-6 is generated by robotic analysis. For all criteria, the maximum value as described is selected. • 1. In vivo screen. The brightest clones are selected at a given temperature. • 2. Expression/specific activity. The value for normalized luminescence is calculated as the ratio of luminescence to optical density. The value is reported as the ratio with the reference value. • 3. Enzyme stability. Measurements of normalized luminescence of the incubated samples (3 taken over about 15 hours) are fitted to In(L)=In(L0)−(t/τ), where L is normalized luminescence and t is time. τ is a measure of the enzyme stability. The value is reported as the ratio with the reference value, and the correlation coefficients are calculated. • 4. Substrate binding. Measurements of normalized luminescence with 1X and 0.02X are taken at the initial reading set, and 1X and 0.06X are taken at the 5 hour set. The ratio of the 0.02X:1X and 0.06X:1X gives the relative luminescence at 0.02X and 0.06X concentrations. These values, along with the relative luminescence at 1X (i.e., 1), are fitted to a Lineweaver-Burk plot to yield the Km:app,total for the substrates ATP, luciferin, and CoA. The values are reported as the inverse ratio with the reference value, and the correlation coefficients are calculated. • 5. Signal stability. The luminescence of the initial IX luminescent reactions are re-measured 3 additional times over about 15 hours. These values are fitted to In(L)=In(L0)−(t/τ) and the integral over t (15 hours) is calculated. Signal stability is then calculated as S=(1−int(L)/L0t)^2. The values are reported as the inverse ratio with the reference value, and the correlation coefficients are calculated. • 6. Composite fitness. The values of criteria 2 through 5 are combined into a single composite value of fitness (or commercial utility). This value is based on a judgment of the relative importance of the other criteria. This judgment is given below:
Calculate enzyme stability (τ): For each sample, use linear regression to fit In(L1x)=In(L0)−(t/τ) using the three luminescence measurements with 1X substrate concentrations (Plates 1, 5, 8). Also calculate the regression coefficient.
Calculate the reference-normalized values: For the criteria parameter of each sample, a reference-normalized value is determined by calculating the ratio or inverse ratio with the respective reference value. The reference-normalized values are Li/Lir, τ/τr, Kmr/Km:app,total, and Sr/S, where reference values are calculated from the equations of the appropriate reference surface.
“Enzyme stability” was determined by the rate of activity loss from cell lysates over 10 hours. In successive rounds of evolution the incubation temperature of the lysates was increased.
Robotic Automation: Robotic automation was used in the quantitative screens to accurately perform the large number of required quantitative assays on the cultured cells. […]

[3] = Retention of luminescence activity at pH 4.5 and 48° C.; format: physicochemical; conditions: pH 4.5 and 48° C. (FIG. 54B)
Method: Three populations of random mutants were produced using clone Luc90-1B5 as a template. These three populations were screened on the robot as experiments 114, 115, and 117. […] These screening conditions were biased to select clones that have increased retention of luminescence activity over time at pH 4.5 at 48° C. and increased luminescence activity when assayed at pH 7.1 with 10 μM ATP. Seventeen clones from experiment 114, seven clones from experiment 115, and ten clones from experiment 116 were shuffled together using sPCR and selected mutants from this screen were run on the robot as experiment 117. Eighteen clones were selected from experiment 117.

[4] = Michaelis-Menten constant for ATP of purified mutants; format: biochemical; conditions: purified enzyme
Text: Substrate binding was screened by measuring an apparent composite Km (see Example 2) for luciferin and ATP. […] The Km for luciferin rose while the Km for ATP declined (Table 3). The reason for this change is unknown, although it can be speculated that more efficient release of oxyluciferin or luciferin inhibitors could lead to more rapid enzyme turnover.
as §1

B1: Luc90-1B5: mutant luciferase, SEQ ID NO:24 (protein)
chain: MADKNILYGPEPFYPLEDGTAGEQMFDALSRYADIPGCIALTNAHTKENVLYEEFLKLSCRLAESFKKYGLKQNDTIAVCSENGLQFFLPVIASLYLGIIVAPVNDKYIERELIHSLGIVKPRIVFCSKNTFQKVLNVKSKLKSIETIIILDLNEDLGGYQCLNNFISQNSDSNLDVKKFKPYSFNRDDQVALIMFSSGTTGLPKGVMLTHKNIVARFSLAKDPTFGNAINPTTAILTVIPFHHGFGMMTTLGYFTCGFRVVLMHTFEEKLFLQSLQDYKVESTLLVPTLMAFLAKSALVEKYDLSHLKEIASGGAPLSKEIGEMVKKRFKLNFVRQGYGLTETTSAVLITPKGDAKPGSTGKIVPFHAVKVVDPTTGKILGPNEPGELYFKGPMIMKGYYNNEEATKAIIDNDGWLRSGDIAYYDNDGHFYIVDRLKSLIKYKGYQVAPAEIEGILLQHPYIVDAGVTGIPDEAAGELPAAGVVVQTGKYLNEQIVQDYVASQVSTAKWLRGGVKFLDEIPKGSTGKIDRKVLRQMFEKHTNG
modifications: Mutant luciferase
increased thermostability compared to LucPpe2 [T249M] [1]: about 35 °C
stability ([1]; 22° C. over several weeks, pH 6.5 (FIG. 16B)): stable
activity loss ([1]; 65° C. over several hours, citrate buffer at pH 6.5 (FIG. 16A)): very little activity loss
half-life ([1]; 65° C., same buffer conditions as Table 2 (FIG. 16A)): 27 h
activity maintained ([1]; after 120 hours (5 days) at 50° C., 25 mol/L citrate pH 6.5, 150 mmol/L NaCl, 1 mg/mL BSA, 0.1 mmol/L EDTA, 5% glycerol): 75%
loss in activity ([1]; 2 hours at 50° C.): 5%
loss in activity ([1]; 5 hours at 65° C.): 5%
loss in activity ([1]; over 6 weeks at 22° C.): 5%
Enzyme stability (tau) [2]: 1.1154
half-life [3]: about 3 minutes
Km [4]: 3 µM
